In PMC5041479:
Where two headings read alike, the source gives them in different places.

T1: Pif1p (yeast, UniProt P07271 40-859)
T1 sequence: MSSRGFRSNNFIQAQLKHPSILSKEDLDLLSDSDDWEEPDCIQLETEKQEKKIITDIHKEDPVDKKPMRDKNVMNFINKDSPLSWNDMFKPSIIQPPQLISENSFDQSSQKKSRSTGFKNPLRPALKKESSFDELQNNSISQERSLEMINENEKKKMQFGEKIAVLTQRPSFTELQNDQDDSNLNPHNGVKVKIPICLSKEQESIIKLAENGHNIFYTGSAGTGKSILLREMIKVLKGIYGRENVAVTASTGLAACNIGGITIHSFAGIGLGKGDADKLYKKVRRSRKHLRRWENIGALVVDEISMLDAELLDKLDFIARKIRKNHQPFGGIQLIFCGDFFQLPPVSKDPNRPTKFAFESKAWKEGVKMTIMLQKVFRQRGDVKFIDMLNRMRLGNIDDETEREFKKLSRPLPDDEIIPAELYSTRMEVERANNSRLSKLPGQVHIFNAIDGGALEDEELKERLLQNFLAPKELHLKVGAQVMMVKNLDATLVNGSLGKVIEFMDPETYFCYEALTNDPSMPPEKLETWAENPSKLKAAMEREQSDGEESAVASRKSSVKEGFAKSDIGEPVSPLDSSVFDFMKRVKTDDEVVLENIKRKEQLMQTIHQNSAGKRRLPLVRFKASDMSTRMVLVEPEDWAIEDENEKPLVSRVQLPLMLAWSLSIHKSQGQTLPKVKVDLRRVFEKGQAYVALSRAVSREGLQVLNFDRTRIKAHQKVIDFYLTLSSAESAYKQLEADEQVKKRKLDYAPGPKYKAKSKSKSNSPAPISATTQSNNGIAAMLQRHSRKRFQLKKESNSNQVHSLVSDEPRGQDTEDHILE


How the values were obtained:
[1] = target: T1, Pif1p; assay: fluorescence anisotropy
[2] = target: T1, Pif1p; assay: fluorescence anisotropy; remark: listed apart in the source

Binder | Kd [1] [nM] | Kd [2] [nM]
TTTTTTTTTTTT (ssDNA) [FAM-T12] | 25.2 | 
GTGTGTGTGGTG (ssDNA) [FAM-GR12] |  | 8.7
